Data from patent publication US20180369403A1 (University of Texas, published 2018).
Values joined by “and” are separate entries in the source; they are usually repeats but may differ in a detail not shown here. Equal entries are not always repeated.

B1: 8D2-MC-VC-PAB-MMAE (antibody, V domains shown)
VH: QVQLQQSGAELVKPGASVNLSCKTSGYTFSTSYMSWFKQIPGQTIEWVGLIYVGAGGPTYNQKFKGKASLTVDTSSSTAYMDLSSLTAEDSAVYFCARVRGYAMDAWGQGTSVTVSS
VL: DIVLTQSPATLSVTPGESVSLSCRASQDISTSIHWYQQKSNESPRLLIKYASQSISGIPSRFSGGGSGTDFTLTINRVESEDFSVYYCQQSYSLPVTFGSGTKLELKR
modifications: MMAE (auristatin) attached through an MC-VC-PAB (maleimidocaproyl-valine-citrulline-p-aminobenzyloxycarbonyl) linker; sites and chain of attachment not stated
B2: anti-LGR4 monoclonal antibody 8D2 (antibody, V domains shown)
VH: B1 VH
VL: B1 VL
notes: also called mAb 8D2; LGR4-mAb-8D2
B3: anti-LGR4 monoclonal antibody 3G6 (antibody, V domains shown)
VH: QVQLQQSGAELVKPGSSVKISCKASGYTFTSNFMHWIKQQPGNGLEWIGWIYPGDGDTDYNQKFIGKATLTADKSSSTAYMQLSSLTSEDSAVYFCSRSNSGYNWFAYWGQGTLVTVSS
VL: DIVLTQSPPVLSASVGDRVTLSCKASQNINKNLDWYQQKHGEAPKLLIYYTNNLQTGIPSRFSGSGSGTDYTLTIRSLQPEDVATYYCYQYRTGWTFGGGTKLELKR
notes: Rat monoclonal antibody; also called clone 3G6

Legend:
[1] = target: T1, human LGR4 (leucine-rich repeat-containing G-protein coupled receptor 4) (human, UniProt Q9BXB1 25-951); assay: cell-based or functional assay
[2] = target: T1, human LGR4 (leucine-rich …); assay: binding to live HEK293 cells stably expressing human LGR4
mouse LGR4 = target: T2, mouse LGR4 (mouse, UniProt A2ARI4 25-951); assay: Western blot, lane HEK293-LGR4-mouse
T2 construct: whole, on cells; also called native mouse receptor; HEK293-LGR4-mouse

[3] = target: T1, human LGR4 (leucine-rich …); assay: fluorescence cell binding, HEK293 cells overexpressing LGR4, Alexa-488 anti-rat IgG
LGR6 = target: T3, LGR6 (UniProt Q9HBX8 25-567, limits assumed); assay: specificity cross check analysis
T3 sequence (looked up): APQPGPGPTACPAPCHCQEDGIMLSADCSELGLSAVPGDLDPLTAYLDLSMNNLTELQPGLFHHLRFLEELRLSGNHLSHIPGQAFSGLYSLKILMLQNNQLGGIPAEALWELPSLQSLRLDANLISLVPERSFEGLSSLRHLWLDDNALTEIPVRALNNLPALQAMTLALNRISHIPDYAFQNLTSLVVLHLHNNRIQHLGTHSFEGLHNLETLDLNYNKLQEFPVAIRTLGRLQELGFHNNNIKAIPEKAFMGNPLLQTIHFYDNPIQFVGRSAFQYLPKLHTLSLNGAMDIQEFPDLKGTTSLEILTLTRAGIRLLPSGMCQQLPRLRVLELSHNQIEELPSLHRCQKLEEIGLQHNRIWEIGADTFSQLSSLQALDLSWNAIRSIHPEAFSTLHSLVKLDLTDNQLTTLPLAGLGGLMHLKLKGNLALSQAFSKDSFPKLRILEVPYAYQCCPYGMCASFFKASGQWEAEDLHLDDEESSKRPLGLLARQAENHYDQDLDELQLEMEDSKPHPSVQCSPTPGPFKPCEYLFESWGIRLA

LGR5 = target: T4, LGR5 (UniProt O75473 22-561, limits assumed); assay: specificity cross check analysis
T4 sequence (looked up): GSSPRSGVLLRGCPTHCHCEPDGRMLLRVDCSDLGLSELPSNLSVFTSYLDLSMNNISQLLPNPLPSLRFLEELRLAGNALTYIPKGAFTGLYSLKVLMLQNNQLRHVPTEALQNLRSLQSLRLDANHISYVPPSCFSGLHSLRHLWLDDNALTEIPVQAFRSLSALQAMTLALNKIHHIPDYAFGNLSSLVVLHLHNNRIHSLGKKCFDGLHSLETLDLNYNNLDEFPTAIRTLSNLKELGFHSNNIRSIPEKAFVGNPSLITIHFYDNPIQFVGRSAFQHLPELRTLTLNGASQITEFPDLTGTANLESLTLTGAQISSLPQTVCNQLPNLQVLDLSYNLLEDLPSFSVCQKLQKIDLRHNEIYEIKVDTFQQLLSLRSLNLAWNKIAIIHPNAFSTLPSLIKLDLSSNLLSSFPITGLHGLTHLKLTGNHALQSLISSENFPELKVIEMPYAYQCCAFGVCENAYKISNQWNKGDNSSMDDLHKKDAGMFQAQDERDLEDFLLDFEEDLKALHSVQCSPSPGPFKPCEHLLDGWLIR

Binder	IC50, cell viability of IGROV1 cells (CelltiterGlo, 4 days) [1]	IC50, cell viability of OVCAR3 cells (CelltiterGlo, 4 days) [1]	IC50, cell viability of SKOV3 cells (CelltiterGlo, 4 days) [1]	Kd [2]	binding result (mouse LGR4)	Kd [3]	binding result (LGR6)	binding result (LGR5)
B1	~0.3 mg/L	~0.03 mg/L	2.4 mg/L	–	–	–	–	–
B2	–	–	–	~0.1 µg/mL and ~0.7 nM	binds	0.5 mg/L	no binding	no binding
B3	–	–	–	–	–	0.1 mg/L	–	–
